Assay results as given in doi:10.1101/2024.02.06.579105.
Each block holds one substance with its values, some of them ahead of it.

What was measured:
Assay in all cases: SEC
[1] = target: MalE-DmxA^E626A (M. xanthus)
[2] = target: MalE-DmxA^GAF×2 (M. xanthus)
[3] = target: MalE-DmxA^R615A (M. xanthus)
[4] = target: MalE-DmxA^WT (M. xanthus)

stoichiometry N [1]: 2
Substance: MalE-DmxA^E626A (domain or fragment)

stoichiometry N [2]: 2
Substance: MalE-DmxA^GAF×2 (domain or fragment)

stoichiometry N [3]: 2
Substance: MalE-DmxA^R615A (domain or fragment)

stoichiometry N [4]: 2
Substance: MalE-DmxA^WT (domain or fragment)
